The data set concerns the molecule itself. In words: SEC. A general note: SEC sorts molecules by how far they enter the pores of the column.

B1: Nucleoplasmin-M9 (other)
chain: MASTVSNTSKLEKPVSLIWGCELNEQDKTFEFKVEDDEEKCEHQLALRTVCLGDKAKDEFNIVEIVTQEEGAEKSVPIATLKPSILPMATMVGIELTPPVTFRLKAGSGPLYISGQHVAMEEDYSWAEEEDEGEAEGEEEEEEEEDQESFGNYNNQSSNFGPMKGGNFGGRSSGPYGGGGQYFAKPRNQGGYG
The term stoichiometry N denotes a count of units in the complex or per binding partner. For the protein B1, the “stoichiometry N” value was 10.

The values are drawn from publication PMC2173498 (The Journal of Cell Biology, 2002).
